Measurements from US11021687B2, “Production of differentiated enteroendocrine cells and insulin producing cells” (Massachusetts Institute of Technology, priority 2016, dated 2021).

What was measured:
Type in all cases: cell-based, mouse
[1] = test system: gastrointestinal stem cells; assay: Insulin / Nkx6.1 mRNA expression (qPCR), 3-stage conversion to insulin producing cells; settings: added in Stage 1, combined with RepSox
Text: “mRNA Insulin Expression Assay” refers to an assay used to determine the relative insulin mRNA expression level of a cell population. For example, the assay can determine the insulin mRNA level expressed in a cell population treated to increase the expression of insulin in the cells, as compared to an untreated population of cells. In an exemplary mRNA Insulin Expression Assay, the cells were collected and the RNA is extracted from the cells using an RNA extraction kit (such as RNeasy Mini kit, Qiagen). The insulin expression level is then assessed by Quantitative real-time PCR using a one-step qPCR kit (such as QuantiTech Probe PCR kit, Qiagen) and Ins1 or Ins2 primers and probes (such as the commercially available TaqMan probe for mouse Ins1 and Ins2, Life Technologies). The relative insulin mRNA expression can be determined relative to a baseline or other marker, such as Hprt mRNA expression level or other baseline marker.
Organoids or differentiated cells were harvested and RNA was extracted using RNeasy Micro Kit (Qiagen) according to the manufacturer's instruction. Quantitative real-time PCR was performed with QuantiTect Probe PCR kit (Qiagen) using commercially available primers and TaqMan probes (Life Technologies). […]

intestinal stem cells [2] = assay: mRNA expression (qPCR) of ChgA and other lineage markers in differentiated intestinal stem cells; settings: Noggin in step 2
Text: “mRNA ChgA Expression Assay” refers to an assay used to determine the relative ChgA mRNA expression level in a cell population. For example, the assay can determine ChgA mRNA expression level of a differentiated cell population following treatment with agents being tested, as compared to an untested population of post-natal stem cells. In an example of an mRNA ChgA Expression Assay, the cells were collected and the RNA is extracted from the cells using an RNA extraction kit (such as RNeasy Mini kit, Qiagen). The ChgA expression level is then assessed by Quantitative real-time PCR using a one-step qPCR kit (such as QuantiTech Probe PCR kit, Qiagen) and ChgA primers and probes (such as commercially available Taqman probe for mouse ChgA, Life Technologies).
(§1) Organoids or differentiated cells were harvested and RNA was extracted using RNeasy Micro Kit (Qiagen) according to the manufacturer's instruction. Quantitative real-time PCR was performed with QuantiTect Probe PCR kit (Qiagen) using commercially available primers and TaqMan probes (Life Technologies).
Cells were then cultured with EGF, Noggin, and DAPT (END), as well as small molecules. After 2-3 days of differentiation, the cells lysed and ChgA expression was measured by qRT-PCR.
Small molecules were further validated using a 24-well plate culture and the differentiation system. […]

intestinal stem cells [3] = assay: Ngn3 mRNA expression during EEC differentiation; settings: 2 days
Procedure: “Ngn3 Assay” as used herein is an assay used to determine the extent of expression of Ngn3 in cells, such as cells subjected to a differentiation protocol. In an exemplary Ngn3 Assay, RNA is isolated from cells that have been cultured according to a differentiation protocol, and quantitative real-time PCR is performed using commercially available primers and probes (such as Taqman probes) to determine an extent of Ngn3 expression in the cells.
as §1
There has been prior speculation that Ngn3 positive secretory progenitors differentiate to EECs (Genes Dev. 2002).

B1: FGF10: growth factor added in Stage 1 (protein, UniProt O15520 38-208, looked up)
Fibroblast growth factor 10: QALGQDMVSPEATNSSSSSFSSPSSAGRHVRSYNHLQGDVRWRKLFSFTKYFLKIEKNGKVSGTKKENCPYSILEITSVEIGVVAVKAINSNYYLAMNKKGKLYGSKEFNNDCKLKERIEENGYNTYASFNWQHNGRQMYVALNGKGAPRRGQKTRRKNTSAHFLPMVVHS
Insulin expression [1]: further increased

B2: Noggin: growth factor (protein, UniProt Q13253 28-232, looked up)
Noggin: QHYLHIRPAPSDNLPLVDLIEHPDPIFDPKEKDLNETLLRSLLGGHYDPGFMATSPPEDRPGGGGGAAGGAEDLAELDQLLRQRPSGAMPSEIKGLEFSEGLAQGKKQRLSKKLRRKLQMWLWSQTFCPVLYAWNDLGSRFWPRYVKVGSCFSKRSCSVPEGMVCKPSKSVHLTVLRWRCQRRGGQRCGWIPIQYPIISECKCSC
effect on EEC differentiation (intestinal stem cells [2]): marginal

B3: R-spondin1: Wnt activator, a protein belonging to the R-Spondin family (protein, UniProt Q2MKA7 21-263, looked up)
R-spondin-1: SRGIKGKRQRRISAEGSQACAKGCELCSEVNGCLKCSPKLFILLERNDIRQVGVCLPSCPPGYFDARNPDMNKCIKCKIEHCEACFSHNFCTKCKEGLYLHKGRCYPACPEGSSAANGTMECSSPAQCEMSEWSPWGPCSKKQQLCGFRRGSEERTRRVLHAPVGDHAACSDTKETRRCTVRRVPCPEGQKRRKGGQGRRENANRNLARKESKEAGAGSRRRKGQQQQQQQGTVGPLTSAGPA
Ngn3 expression on removal of R-spondin1 (intestinal stem cells [3]): strong reduction
